Results published in article PMC9646525, “Cryo-EM structure of the SEA complex” (Nature, 2022).

Key:
Sea2 = target: T1, Sea2 (S. cerevisiae (endogenous in yeast …, UniProt Q08281 1-1341)); assay: co-IP; Sea4-TAP captured from cleared yeast lysate on IgG-coupled Dynabeads, washed, eluted with TEV protease, Coomassie-stained SDS-PAGE; 4 °C, 20 mM HEPES-NaOH pH 7.4, 300 mM NaCl, 5 mM CHAPS, 10% glycerol; wild-type, ΔNpr3, Npr2^R84A and Sea1^R943A strains; conditions: partners not purified
T1 construct: Sea2, S. cerevisiae, endogenous subunit of the SEAC (SEACAT, core); Native protein of the purified complex; two copies in the SEAC; source: endogenous, yeast cells expressing Sea4-TAP; in lysate and co-purified with Sea4-TAP (IgG Dynabeads, TEV elution)
T1 sequence (looked up): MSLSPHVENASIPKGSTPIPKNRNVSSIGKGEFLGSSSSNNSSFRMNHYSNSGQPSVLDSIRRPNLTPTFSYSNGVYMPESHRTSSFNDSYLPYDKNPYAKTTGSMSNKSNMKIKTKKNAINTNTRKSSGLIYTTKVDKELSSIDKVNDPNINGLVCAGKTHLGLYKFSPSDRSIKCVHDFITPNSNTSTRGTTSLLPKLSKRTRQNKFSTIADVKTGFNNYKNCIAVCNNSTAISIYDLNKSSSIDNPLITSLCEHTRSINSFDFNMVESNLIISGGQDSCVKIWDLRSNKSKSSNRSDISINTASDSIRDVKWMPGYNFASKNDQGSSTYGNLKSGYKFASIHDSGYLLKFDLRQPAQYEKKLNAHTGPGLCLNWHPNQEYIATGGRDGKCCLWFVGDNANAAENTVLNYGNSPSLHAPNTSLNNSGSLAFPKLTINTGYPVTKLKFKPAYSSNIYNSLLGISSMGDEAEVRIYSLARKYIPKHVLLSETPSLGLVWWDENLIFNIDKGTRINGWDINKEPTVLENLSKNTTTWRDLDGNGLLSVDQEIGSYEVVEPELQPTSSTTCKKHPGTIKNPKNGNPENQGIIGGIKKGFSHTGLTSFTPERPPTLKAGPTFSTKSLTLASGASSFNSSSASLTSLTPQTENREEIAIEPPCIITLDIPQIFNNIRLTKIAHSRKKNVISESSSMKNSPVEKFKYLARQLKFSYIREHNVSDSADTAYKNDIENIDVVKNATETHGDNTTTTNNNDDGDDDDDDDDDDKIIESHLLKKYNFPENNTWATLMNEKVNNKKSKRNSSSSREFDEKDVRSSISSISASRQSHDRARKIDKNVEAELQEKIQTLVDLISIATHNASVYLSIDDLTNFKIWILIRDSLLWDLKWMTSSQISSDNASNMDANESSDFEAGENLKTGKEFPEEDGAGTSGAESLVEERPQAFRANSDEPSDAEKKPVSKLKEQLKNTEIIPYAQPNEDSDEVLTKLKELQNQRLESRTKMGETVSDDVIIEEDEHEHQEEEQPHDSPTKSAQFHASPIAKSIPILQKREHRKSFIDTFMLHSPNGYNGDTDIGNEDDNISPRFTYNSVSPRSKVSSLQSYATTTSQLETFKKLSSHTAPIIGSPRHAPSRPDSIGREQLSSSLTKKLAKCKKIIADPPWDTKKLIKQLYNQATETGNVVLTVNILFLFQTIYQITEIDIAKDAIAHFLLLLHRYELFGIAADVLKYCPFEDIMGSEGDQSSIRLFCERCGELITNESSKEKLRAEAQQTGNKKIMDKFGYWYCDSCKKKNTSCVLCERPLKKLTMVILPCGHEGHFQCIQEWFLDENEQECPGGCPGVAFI

Sea3 = target: T2, Sea3 (S. cerevisiae (endogenous in yeast …, UniProt Q03897 1-1148)); assay: as above; conditions: partners not purified
T2 construct: Sea3, S. cerevisiae, endogenous subunit of the SEAC; Sea3^SIP (Sea3^Nter) lies in the wing, Sea3^SAP (Sea3^Cter) in the core; Native protein of the purified complex; two copies in the SEAC; source: endogenous, yeast cells expressing Sea4-TAP; in lysate and co-purified with Sea4-TAP (IgG Dynabeads, TEV elution)
T2 sequence (looked up): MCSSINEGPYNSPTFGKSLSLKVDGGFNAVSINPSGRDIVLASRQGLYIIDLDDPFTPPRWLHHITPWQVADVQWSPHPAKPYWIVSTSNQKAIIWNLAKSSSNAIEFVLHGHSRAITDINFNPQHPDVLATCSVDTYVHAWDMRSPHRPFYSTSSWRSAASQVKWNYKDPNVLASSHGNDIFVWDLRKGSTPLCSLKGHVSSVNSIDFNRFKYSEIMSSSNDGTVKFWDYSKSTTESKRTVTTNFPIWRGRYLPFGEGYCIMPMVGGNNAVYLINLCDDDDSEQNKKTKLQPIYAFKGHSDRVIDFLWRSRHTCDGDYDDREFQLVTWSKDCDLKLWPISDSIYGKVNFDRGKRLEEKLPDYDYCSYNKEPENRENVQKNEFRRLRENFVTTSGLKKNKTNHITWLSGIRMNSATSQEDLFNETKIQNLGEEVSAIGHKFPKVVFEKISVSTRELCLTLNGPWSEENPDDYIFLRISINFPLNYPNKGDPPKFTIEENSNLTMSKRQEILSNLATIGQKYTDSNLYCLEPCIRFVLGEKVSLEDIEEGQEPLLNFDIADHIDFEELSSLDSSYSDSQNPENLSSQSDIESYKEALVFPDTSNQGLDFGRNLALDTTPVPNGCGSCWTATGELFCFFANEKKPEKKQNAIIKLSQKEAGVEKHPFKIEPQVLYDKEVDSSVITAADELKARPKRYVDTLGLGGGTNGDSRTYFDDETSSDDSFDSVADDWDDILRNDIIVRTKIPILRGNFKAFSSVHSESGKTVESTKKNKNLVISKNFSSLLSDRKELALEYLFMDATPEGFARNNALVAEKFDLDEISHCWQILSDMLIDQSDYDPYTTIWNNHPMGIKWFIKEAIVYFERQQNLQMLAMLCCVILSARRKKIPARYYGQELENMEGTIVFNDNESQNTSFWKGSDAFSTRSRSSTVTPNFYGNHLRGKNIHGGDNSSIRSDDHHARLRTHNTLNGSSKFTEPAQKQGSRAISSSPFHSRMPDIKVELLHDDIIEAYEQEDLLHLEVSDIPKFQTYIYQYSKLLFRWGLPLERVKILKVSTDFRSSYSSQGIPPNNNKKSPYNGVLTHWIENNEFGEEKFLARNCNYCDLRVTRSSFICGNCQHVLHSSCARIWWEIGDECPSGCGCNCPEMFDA

B1: Sea4-TAP (natural protein, UniProt P38164 1-1038, looked up)
chain: MGLIKKVTHWSYDNLIDYLSVNPTRDEVTHYKVDPENESDESIIKLHTVKDFGSITCLDYSESEIGMIGVGEKNGYLRIFNISGQNSSSPASHAPVGLNANNETSMTNASGGKAAQAENIVGSVSNLKDTQGYPVSETNYDIRVRAKKQRCINSLGINTNGLIAMGLDRNKHDSSLQIWDMNYHDDSHETINPMFSYCTNESIVSLKFLNDTSVLAASTKFLKEIDVRSPNPIYQHPTRLTYDIKLNPFNDWQFSTYGDDGTLAIWDRRKLSDQASLGDLNVASPLLTFEKLVGSGAASRKYMNSCFRWSCVRNNEFATLHRGDTIKRWRLGYYCDSNRDIAADDDNEMNIENLFVSSVHDTNTMYDRVATFDYIPRSNNGTSLICMRQSGTIYRMPISEVCSKAILNNRNSLLLSNFENTEIDEIRVNNEHEKSNLENVKTILKNLSFEDLDVSEDYFPSGHDEPNNEIEYSELSEEENEGSNDVLDSKRGFELFWKPEKLLEKDISVIMRTRASLGYGLDPMNTVEMIDSSKNLQNNAYIRNTWRWIAIAKASVDDGTMVSGDLDLGYEGVIGIWNGINGISNQDRYRQETILSDKQLNKEMEKIIKLRRKNRDRNSPIANAAGSPKYVQRRLCLIISGWDLSRSDYEDKYNIIMKNGHYEKAAAWAVFFGDIPKAVEILGSAKKERLRLIATAIAGYLAYKDLPGNNAWRQQCRKMSSELDDPYLRVIFAFIADNDWWDILYEPAISLRERLGVALRFLNDTDLTTFLDRTSSTVIENGELEGLILTGITPNGIDLLQSYVNKTSDVQSAALISIFGSPRYFRDQRVDEWIQTYRDMLKSWELFSMRARFDVLRSKLSRTKTGVLTADIKPRQIYIQCQNCKQNINTPRTSSPSSAVSTSAGNYKNGEAYRRNNADYKKFNTGSSEAQAADEKPRHKYCCPHCGSSFPRCAICLMPLGTSNLPFVINGTQSRDPMQTEDSQDGANRELVSRKLKLNEWFSFCLSCNHGMHAGHAEEWFDRHNVCPTPGCTCQCNK
notes: Sea4, S. cerevisiae, endogenous subunit of the SEAC (SEACAT, core), TAP-tagged; Captured by the TAP tag on IgG beads; the complex was released with TEV protease before SDS-PAGE and cryo-EM; Written 'Sea4-TAP'; Four copies in the SEAC; source: endogenous, yeast cells expressing Sea4-TAP; in lysate, purified on IgG-coupled Dynabeads and eluted with TEV protease
B1: binds (Sea2); binds (Sea3).
